# Measured values from the RNAGym collection of RNA variant scans (doi:10.1021/acssynbio.7b00057).
# B1: Pistol ribozyme (parent)
# chain: GGGUCGUUGUUCCAUAAUCGCGUGGAUAUGGCACGCAAGUUUCUACCGGGCACCGUAAAUGUCCGACUGGAGCCGUUCGGGCGGCUAUAAACAGACCUCAGGCCCGAAGCGUGGCGGCACCUGCCGCCGGUGGUAAAAAAGAUCGGAAGAGCACACGUCU
# Variants of: B1
# Experiment: aptazyme ON/OFF ratio, guanine; higher = stronger switching; co-transcriptional cleavage with and without guanine
row,Variant,aptazyme ON/OFF ratio
1,U8G U11A C12G C13A,1.1
2,U8G U11A C12G C13G,1.09
3,U8G U11A C12G C13U,1.09
4,U8G U10G C12U C13U,1.2
5,U8G U10G C12U C13A,1.3
6,U8G U10G C12U C13G,1.18
7,U8G U10A U11C C12A,1.18
8,U8G U10A U11C C12U,1.03
9,U8G U10A U11C C12G,1.21
10,U8G U10G U11A C12G C13G,1.17
11,U8G U10G U11A C12G C13U,1.34
12,U8G U10G U11A C12G C13A,1.13
13,G9A C12G,1.71
14,G9A C12U,1.78
15,G9A C12A,1.92
16,U8G U10C C12G C13U,1.27
17,U8G U10C C12G C13G,1.14
18,U8G U10C C12G C13A,1.13
19,U8G U10C U11C C12A C13A,1.1
20,U8G U10C U11C C12A C13G,1.11
21,U8G U10C U11C C12A C13U,1.05

row,Variant,aptazyme ON/OFF ratio
1,U8G U10A U11A C13A,1.2
2,U8G U10A U11A C13G,1.07
3,U8G U10A U11A C13U,1.17
4,G9A U10A U11A C13U,1.46
5,G9A U10A U11A C13A,1.11
6,G9A U10A U11A C13G,1.05
7,U8G G9U U11G C12U C13G,1.1
8,U8G G9U U11G C12U C13U,1.16
9,U8G G9U U11G C12U C13A,1.13
10,G9A,3.41
11,U8G U11A C13G,1.11
12,U8G U11A C13A,1.24
13,U8G U11A C13U,1.33
14,U8G U10C C13G,1.04
15,U8G U10C C13U,1.15
16,U8G U10C C13A,1.05
17,U8G U10A U11A C12U C13A,1.3
18,U8G U10A U11A C12U C13G,1.17
19,U8G U10A U11A C12U C13U,1.14
20,U8G U10A C12A C13A,1.26
21,U8G U10A C12A C13U,1.27

row,Variant,aptazyme ON/OFF ratio
1,U8G U10A C12A C13G,1.05
2,U8G G9U U11G C12G C13A,1.21
3,U8G G9U U11G C12G C13U,1.22
4,U8G G9U U11G C12G C13G,1.36
5,U8G U10G C12A C13A,1.26
6,U8G U10G C12A C13U,1.17
7,U8G U10G C12A C13G,1.19
8,U8G U10C U11A C12U C13A,1.14
9,U8G U10C U11A C12U C13U,1.22
10,U8G U10C U11A C12U C13G,1.14
11,G9A U10A C13A,1.41
12,G9A U10A C13U,1.5
13,G9A U10A C13G,1.14
14,G9A U10A U11C C12G C13U,1.41
15,G9A U10A U11C C12G C13A,1.31
16,G9A U10A U11C C12G C13G,1.27
17,G9A C13U,1.52
18,G9A C13A,1.45
19,G9A C13G,1.07
20,U8G U11C C13U,1.37
21,U8G U11C C13G,1.17

row,Variant,aptazyme ON/OFF ratio
1,U8G U11C C13A,1.19
2,G9A U10A U11G C12G C13U,1.25
3,G9A U10A U11G C12G C13A,1.42
4,G9A U10A U11G C12G C13G,1.2
5,U8G U10C U11C C12G,1.21
6,U8G U10C U11C C12A,1.09
7,U8G U10C U11C C12U,1.17
8,U8G U11C,2.46
9,U8G U11A,3.01
10,U8G U11G,1.25
11,U8G U10C C12U C13U,1.17
12,U8G U10C C12U C13A,1.05
13,U8G U10C C12U C13G,1.07
14,G9A U10A C12A C13U,1.36
15,G9A U10A C12A C13G,1.06
16,G9A U10A C12A C13A,1.61
17,U8G U10G C13U,1.11
18,U8G U10G C13A,1.15
19,U8G U10G C13G,1.23
20,U8G U10A U11G C12A,1.12
